The values that follow come from paper PMC13598120.

B1: Flag-tagged GNL3 (Flag-GNL3), wild type [human] / RAD51, endogenous [human (endogenous in U2OS and HeLa)] (parent)
chain 1: MKRPKLKKASKRMTCHKRYKIQKKVREHHRKLRKEAKKRGHKKPRKDPGVPNSAPFKEALLREAELRKQRLEELKQQQKLDRQKELEKKRKLETNPDIKPSNVEPMEKEFGLCKTENKAKSGKQNSKKLYCQELKKVIEASDVVLEVLDARDPLGCRCPQVEEAIVQSGQKKLVLILNKSDLVPKENLESWLNYLKKELPTVVFRASTKPKDKGKITKRVKAKKNAAPFRSEVCFGKEGLWKLLGGFQETCSKAIRVGVIGFPNVGKSSIINSLKQEQMCNVGVSMGLTRSMQVVPLDKQITIIDSPSFIVSPLNSSSALALRSPASIEVVKPMEAASAILSQADARQVVLKYTVPGYRNSLEFFTVLAQRRGMHQKGGIPNVEGAAKLLWSEWTGASLAYYCHPPTSWTPPPYFNESIVVDMKSGFNLEELEKNNAQSIRAIKGPHLANSILFQSSGLTNGIIEEKDIHEELPKRKERKQEEREDDKDSDQETVDEEVDENSSGMFAAEETGEALSEETTAGEQSTRSFILDKIIEEDDAYDFSTDYV
chain 2: MAMQMQLEANADTSVEEESFGPQPISRLEQCGINANDVKKLEEAGFHTVEAVAYAPKKELINIKGISEAKADKILAEAAKLVPMGFTTATEFHQRRSEIIQITTGSKELDKLLQGGIETGSITEMFGEFRTGKTQICHTLAVTCQLPIDRGGGEGKAMYIDTEGTFRPERLLAVAERYGLSGSDVLDNVAYARAFNTDHQTQLLYQASAMMVESRYALLIVDSATALYRTDYSGRGELSARQMHLARFLRMLLRLADEFGVAVVITNQVVAQVDGAAMFAADPKKPIGGNIIAHASTTRLYLRKGRGETRICKIYDSPCLPEAEAMFAINADGVGDAKD

The variants in one assay derive from B1. The assay is described as follows: co-IP (anti-Flag IP, IB RAD51, band quantification). The note with it: with RAD51, endogenous [human (endogenous in U2OS and HeLa)]; U2OS cells; 20 μM ETO, 0 h; read off a plot.
With chain 1 K196R, the response (relative level) stood at 0.17.

Still in this assay, the particulars now being: with RAD51, endogenous [human (endogenous in U2OS and HeLa)]; U2OS cells; 20 μM ETO, 2 h; read off a plot.
For chain 1 K196R, the response (relative level) was 0.52.

Still in this assay, the particulars now being: with RAD51, endogenous [human (endogenous in U2OS and HeLa)]; U2OS cells; 20 μM ETO, 8 h; read off a plot.
On to chain 1 K196R, for which the response (relative level) turned out to be 0.31.
